# According to the DeepSol protein solubility set:
# Assay: soluble on expression in E. coli; label from the status in PepcDB or PDB records
row,Sequence,soluble on expression in E. coli
1,MGSDKIHHHHHHMKDEVLIYSWVGEENIGDELILKSIVRMIEKIDDRLKVNVMGTKPKVINKIHNHLGLNRISTYINWTLKSILRAILKHNIFKAILNILCSNKLIIASGGALSDWNPSSTKTIFFLIDLFYFMNRPICMMGVGAGPILHEKSKKRFYNKLKKLEVITVRDEESYELLKSIGLKNVILTSDSVFNICSIIQNKYPEKDVTEKKISFVLAKLFKDNTKELKEYKEEIIKTINRLKKENWKIKLVPFHYSEDIGFLKSINQKCNVEILNSHDMYDTIGELNNENIIVGMRYHSVIMSLVLGKKVIPLIYHPKVYSVARRFEILDIAENVGNGGNWIGSNISSERLLKNIEKLYKSDENTAKNRGKVLRIVKQNDLNNEILARFLRHSNVLEVVSYNVQRH,not soluble
2,MGHHHHHHSHMEEERRDDYKFLRIQDAFKALHLHVNLIGVIVELGFSNGSDCSCTLKIVDPWYSGSGLPVKFVARTIRDLPRVESIGDIILLSRVKIVLINRKITALCNETTSSSFALFNGKHSVDSIPYQSSPKFLMREQDKNFLSNLREWMITYKFEDGS,not soluble
3,MSEPLLIARTPDTELFLLPGMANRHGLITGATGTGKTVTLQKLAESLSEIGVPVFMADVKGDLTGVAQAGTVSEKLLARLKNIGVNDWQPHANPVVVWDIFGEKGHPVRATVSDLGPLLLARLLNLNDVQSGVLNIIFRIADDQGLLLLDFKDLRAITQYIGDNAKSFQNQYGNISSASVGAIQRGLLSLEQQGAAHFFGEPMLDIKDWMRTDANGKGVINILSAEKLYQMPKLYAASLLWMLSELYEQLPEAGDLEKPKLVFFFDEAHLLFNDAPQVLLDKIEQVIRLIRSKGVGVWFVSQNPSDIPDNVLGQLGNRVQHALRAFTPKDQKAVKAAAQTMRANPAFDTEKAIQELGTGEALISFLDAKGSPSVVERAMVIAPCSRMGPVTEDERNGLINHSPVYGKYEDEVDRESAYEMLQKGFQASTEQQNNPPAKGKEVAVDDGILGGLKDILFGTTGPRGGKKDGVVQTMAKSAARQVTNQIVRGMLGSLLGGRRR,soluble
4,MSLDHSRDQARRNIAVHYDLSNDLFAAFLDETMTYSCAMFTDLLAQPTPAWTELAAAQRRKIDRLLDVAGVQQGSHVLEIGTGWGELCIRAAARGAHIRSVTLSVEQQRLARQRVAAAGFGHRVEIDLCDYRDVDGQYDSVVSVEMIEAVGYRSWPRYFAALEQLVRPGGPVAIQAITMPHHRMLATRHTQTWIQKYIFPGGLLPSTQAIIDITGQHTGLRIVDAASLRPHYAETLRLWRERFMQRRDGLAHLGFDEVFARMWELYLAYSEAGFRSGYLDVYQWTLIREGPEGHHHHHH,not soluble
5,MSLKPVMIIQFSASEGPGHFGDFLAGEHIPFQVLRMDRSDPLPAEIRDCSGLAMMGGPMSANDDLPWMPTLLALIRDAVAQRVPVIGHCLGGQLLAKAMGGEVTDSPHAEIGWVRAWPQHVPQALEWLGTWDELELFEWHYQTFSIPPGAVHILRSEHCANQAYVLDDLHIGFQCHIEMQAHMVREWCSISPEELKGGAEADPAQPMVQSAVEILRDLDVRIATLNRWAEHVYARWIKGLQREGHHHHHH,soluble
6,MSLSRIIVVTSGKGGVGKTTSSAAIASGLALRGKKTAVIDFDIGLRNLDLIMGCERRVVYDFVNVINGEATLNQALIKDKRNENLFILPASQTRDKDALTKDGVQRVLNDLKEMGFDFIICDSPAGIEQGALMALYYADEAIVTTNPEVSSVRDSDRILGILDSKSMRAEQGQAPIKQHLLLTRYNPARVTQGEMLSVQDVEEILHVPLLGVIPESQAVLNASNKGVPVIFDDQSDAGQAYQDTVARLLGEQVEFRFLTEAKKGIFKRLFGGEGHHHHHH,soluble
7,MASFIDLSSADLSPLSGALHGPDRVARALLIQGGALVPPRPMLWPCAGDMLNGLHILGDLHAPDVDLLVAKRVVAGGSGAHLKLDDQLVYAEGAYPYYVQHWYQHDIARQAWDFDAPVTHRLDRAFVITHFNFVWGHWLTEMYPKLFVIRALNAAGITAPLLLPRTAPGYVARIVRMMLPDQEIVTYDPRDEAVEIGAALLPHMLNRNYVFHDFLRWNLEREALSFTKGGDADMLFVSRGGVRTAQSFRELENEAEIEGLAQEAGLTLVRPETLGWDQQARLFSRARLVAGEFGSGLHNALLSPQGCQVVSLNWLVEVQSRIGNFRRHDVGYILPADGQARLYSIEPQANQPFTIDPVEFRQKLAIAVDRAQARKAMAGWDDAPFPVDTPELRLLEHHHHHH,soluble
8,MDVDLASVEVVFAQKLACGEPATRQRALRVLHDWIRDQSAKKHFDDADLMRLCKGLHYVMWMQDKMILQEELADRIGGLINIFTSEEEKVRFVACFLKSLSKEWPHIDRWRMDKFLMEVRRMVRACFTHLAELKWKKDIRDEYWKVFQETTISTDKSFNEALKFHFASILLDELDAAGGLTKKQVTACLKPYIELLGNKDISEYLFTSLYEEIFKTILQQKSDLITAVEEGEEMDQGGIEFSYKEIGALLFEVGKQEHLNAKRRKKIYDLVKKFDKSSRGQDPLHFETPVPKERLTRHDYEEAEKKAIVLANSFKQERKSSRKVKSQIKKRAREAAEAARQENGDDVPDDEIAEVKKGNGKKTAVPKVKKGRPLLKAKGVGKKRMVGGLKRKAGKKN,not soluble
9,MGSDKIHHHHHHMRLYESLLEMCLNKAWEHQTLALENPSVACMVLDKNHEILSLETHKKAKTPHAEVLAAQSALKILRPSLKNDLEKLEDPKTLSDFLKTHHDNAFTDCVFLITLEPCNSYGKTPACSELLEILKPKRVVIATEENEAKKGGLARLQKARIETIICHNLENKAKDLLLPFRVMEQKGRFNLFKLALRMNGDYHHGKITGQKSVIFTHNQRAICDTLIVSGKTIRTDNPLLDARFCDSFYQNKNPNIAILSKRSIDPNSKVFSAPNRLVNTFHDPKDLPLEKGFNFIEGGWELFESLRDKIDALLLHSHASMIGEAFKALALKTPFKGRLLHAQILENEALLWIENS,not soluble
10,MAEHDITPEVTISKTQRRYKVGYVRARHQDRKTGIARYYSQHPSLHLKGDWLKEAGFDTGRGVTVKISEGGLTIIADSDEVQELRDGMFSVLNES,not soluble
11,MSLKDILVIGATGKQGNAVVKQLLEDGWYVSALTRNKNNRKLSDIGHPHLSIVEGDLSDNVSLQSAMKGKYGLYSIQPIVKDDVSEELRQGMKIIEIAEQENIQHIVYSTAGGVNRNRTGPHFEVLAKIENRLMESNINATVIKPSFFMDNFLRIAKVEDERITLPEFINPNIKFTMISSIDIAKIASYIFAHPQSFTHQSIEIGSDEVTLSEAATIFSEVTGKSTVIEGEFVSGVAEKQWLEEKGYEVDFELMAEINPTRLSLSDWLKVQNYNEGHHHHHH,soluble
12,MGRIFLDHIGGTRLFSCANCDTILTNRSELISTRFTGATGRAFLFNKVVNLQYSEVQDRVMLTGRHMVRDVSCKNCNSKLGWIYEFATEDSQRYKEGRVILERALVRESEGFEEHVPSDNS,soluble
13,MGSDKIHHHHHHMTLEIAQKRTIKLLKSSTPKEKLNKFVKGYVPTHYKRLSISMEKAIELAIIGATESLAYYGDRLYFTQALLMGAVVSGEYDNIIVVTPSQYGKSWLSSRIAVWLADHNRRCYVAGGKKDTTDIIMQHVTDTLQTVDESIARKLLEPVDKLERLQTGLSKRKISFSGGGSIEGISLGEHFKGNKSGNQAIGRGGDYIIDESAFVSNETYAELGRRNFANVDGKNYLSFEISNPHNKGRFYDKLTQENIPKGMLVVWADVRTAFEEDRVKSIEQVISSEFFQNKSTCQRYFLCELPDENEDGMFGTPQTEEEHTEKNWEYFLGVDSAYKGKDKIKATLSALDAQGQVHVIDTIEIEKGDWQDGVTSKKIITQLLMIIEHFEVKGVCVDVGYGVYIVEGLAHINGDFELHGINFGAGTTKERVEKNHYSAKYGANKRAEMHIDLQENIDNRNIFFTEKVYEEVIDELVLVSSKIKSNGKTAIVPKEEIKAKLGHSPDTLDSVLLSLHAIILYKLNERFYIYS,not soluble
14,MSLNLSRIGLDLAKQVFQVHGVDRHEHVVCRRQLKRAQVRDFFRQLPPCLVAMEACGSAHYWARELRELGHTVRLIAPQFVKPYVKGDKHDAHDAEAICEAASRPSMRYVPVKSAEQQAVQSMHRVRSRLVRARTALCNEVRGLLGEFGLIATRRGRAATMALLETVMATEPAPLPAPMGELLRELKDELQTLEARIARLERQIQAHVRGDARIQRLLAVEGIGPISASAVAASAGDARQFRTGRQFAAWLGLVPRQHSTGGQQRLGNISKRGDTYLRTLLIHGARAVVRCCANKTDARSRWLQGLLQRRPANVVAVALANKNARILWALLSRETCYRPGEGHHHHHH,not soluble
